From article PMC10720262 (2023)
Numbering of substitutions follows the chain as printed.

B1: CL-511296 (antibody, V domains shown)
VH: QVQLVASGGGVVQPGRSQRLSCAASGFTFSNYGMHWVRQSPGRGLEWVAIIWYDGSNKFYADSVKGRFTISRDNSRNTLFLQMNSLRAEDTAIYYCAKSEERTSDNYFKYGMDVWGQGTTVIVST
VL: DIQMTQSPSTLSASVGDRVTITCRASQSISSWLAWYQQKPGKAPKLLIYKASNLESGVPSRFSGSGSGTEFTLSISNLQPDDFATYFCQQYTSYWTFGQGTKVEIK
modifications: peptides N-terminally acetylated and C-terminally amidated
B2: CL-445901 (antibody, V domains shown)
VH: QVQLVESGGGVVQPGRSLRLSCAASGFTFSNYGIHWVRQAPGKGLEWVALIWFNGNNKFYADSVEGRFTVSRDNSKNTLYLQLNSLRAEDTAVYYCARAYYFASGNYMDYWGQGTLVTVSS
VL: DIQMTQSPSSVSASMGDRVTITCRASQDISSSLAWYQQKPGKAPILLISFASSLHSGVPSRFSGSGSGTDFTLTISSLQPEDFATYSCQQANSFPWTFGQGTRVEVK
modifications: peptides N-terminally acetylated and C-terminally amidated
B3: CL-460619 (antibody, V domains shown)
VH: QVQLVESGGGVVQPGRSLRLSCAASGFTFDYYGMHWVRQAPGKGLEGVAIIWYDGSNKFYADSVKGRFTISRDNSKNTLYLQMTSLRVEDTAVYYCARDGRIGDPGPYFDYWGQGTLVTVSS
VL: EIVMTQSPATLSVSPGERPTLSCRASQSVSSKLAWYQQKPDQAPRLLIYGASTRATGIPPRFSGSGSGTEFTLTIDSLQSEDFAVYYCQQYHKWWTFGQGTKVEIK
modifications: peptides N-terminally acetylated and C-terminally amidated
B4: CL-512023 (antibody, V domains shown)
VH: QVQLMESGGGVVQPGRSLRLSCEASGFTFSNSGMHWVRQAPGKGLEWVAIIWYDGSNRYYVDSVKGRFTISRDNSKNTLYLQMNSLRAEDTAVYYCARDGGNRYGYGWFDSWGQGTLVTVSS
VL: QSVLTQPPSVSGAPGQRVTISCTGSSSNIGAGYDVHWYQQLPGTAPKLLIYGNTNRPSGVPDRFSGSKSGTSASLAITGLQAEDEADYYCQSYDSSLGGSRRVFGGGTKLTVL
modifications: peptides N-terminally acetylated and C-terminally amidated
B5: CL-513069 (antibody, V domains shown)
VH: QVQLVESGGGVVQPGKSLRLSCEASGFTFSNYGMHWVRQAPGKGLDWVAIIWHDGGNKFYADSVRGRFTISRDNSKNTLFLQMNSLRAEDSAVYYCARVFDFRDSCYTMDVWGQGTTVTVSS
VL: B1 VL with N53S, T72S, S74T, N77S, F87Y, S93R, K102R, K106Q
modifications: peptides N-terminally acetylated and C-terminally amidated
B6: CL-509326 (antibody, V domains shown)
VH: QVYLVESGEGVVQPGRSLRLSCAASGFTFSNYGMHWVRQAPGKGLEWVAVIWYNGNNKFYADSVKGRFTISRDNSKNTLFLQMNSLRAEDTAVYFCARSGYSRSSYFDYWGQGTLVTVSS
VL: QSVLTQPPSVSGAPGQRVTISCTGSSSNIGAVYDVHWYQQLPGTAPKLLIYGNTNRPSGVPDRFSGSQSGTSASLAITGLQAEDEADYYCQSYDSSLSGSVFGGGTKLTVL
modifications: peptides N-terminally acetylated and C-terminally amidated
B7: CL-462788 (antibody, V domains shown)
VH: QVQLVESGGGVVQPGRSLRLSCAASGFTFRNYGMHWVRQAPGKGLEWVAIIWYDGSYKFYADSVKGRFTISRDNSKNTLYLQMNSLRAEDTAMYYCARDDALELRSFDIWGQGTMVTVSS
VL: DVVMTQSPLSLPVTLGQPASISCRSSQSLVYSDENTYLSWFQQRPGQSPRRLIYKISNRDSGVPDRFSGSGSGTDFTLKISRVEAEDVGVYYCMQGTHWPRTFGQGTEVEIK
modifications: peptides N-terminally acetylated and C-terminally amidated
B8: CL-511026 (antibody, V domains shown)
VH: QVQLVESGGGVVQPGRSLRLSCAASGFTFSNFGMHWVRQAPDRGLEWVSIIWYDGSNKFYADSVKGRFTISRDNSKNTLFLQMDSLRAEDTAVYYCAKAEMRTSDYYNYGMDVWGQGTTVTVSS
VL: B1 VL with N53S, G68A, S74T, S76R, N77S, F87Y, T92Y, K106N
modifications: peptides N-terminally acetylated and C-terminally amidated
B9: CL-509880 (antibody, V domains shown)
VH: QVQLVESGGGVVQPGRSLRLSCAASGFTFSNSGMHWVRQAPGKGLEWVAVIWYDGSNKYYADSVKGRFTVTRDNSKNTLYLQMNSLRAEDTAVYYCVRAYYGSGSYHFKYGMDVWGQGTTVTVSS
VL: not shown
modifications: peptides N-terminally acetylated and C-terminally amidated
B10: CL-510427 (antibody, V domains shown)
VH: QVQLVESGGGVVQPGRSLRLSCAASGFTFSNYGMHWVRQAPGKGLEWVAVIWYDGSKEDYADSVKGRLTISRDNSKNTLYLQMNSLRAEDTAVYYCARDGDSRGWYAFDYWGQGTLVTVSS
VL: not shown
modifications: peptides N-terminally acetylated and C-terminally amidated
B11: CL-512011 (antibody, V domains shown)
VH: QVQLVESGGGVVQPGRSLRLSCVTSGFTFSSFGMHWVRQAPGKGLEWVALIWYDGSHKFYADSLTGRFTISRDNSKNTLYLQMNSLRVEDTAVYYCARAHAVTTANDKYGTDVWGQGTTVNVSP
VL: B1 VL with Q38H, K42N, S74T, N77S, T92N, I105V
modifications: peptides N-terminally acetylated and C-terminally amidated
B12: Ky15.5 (antibody, V domains shown)
VH: QVQMVASGGGVVQPGRSLRLSCAVSGFTFRNFGMHWVRQDPGRGLEWVAIIWYDGSYEFYADSVKGRFTISRDNSKNTLYLQMNSLRAEDTAVYYCARSYGSLTGDETKYGMDVWGQGTTVTVSS
VL: B1 VL with Y36F, N53S, S74T, N77S, F87Y, T92K, S93N
modifications: peptides N-terminally acetylated and C-terminally amidated
B13: CL-512275 (antibody, V domains shown)
VH: B11 VH with R16G, L18F, V23E, S31N, A101S, N121T
VL: B1 VL with Q38H, K42R, N53S, V58I, S74T, N77S, T92N
modifications: peptides N-terminally acetylated and C-terminally amidated
B14: CL-460369 (antibody, V domains shown)
VH: QVQLVESGGGVVQPGRSLRLSCAASGFTFSNYGMHWVRQAPGKGLEWVGIIWYDGSNKYYIDSVKGRFTISRDNSRNTLYLQINSLRAEDTAVYYCARDGGWNDDYYYVMDVWGQGTTVTVSS
VL: DIVMTQSPDSLAVSLGEGATINCKSSQSVLYSSNNKNYLAWYQQKPGQPPKVLIYWASIRESGVPDRFSGSGSGTDFTLTISSLQAEDVAVYYCQQYYSMCSFGQGTKLEIK
modifications: peptides N-terminally acetylated and C-terminally amidated
B15: CL-510458 (antibody, V domains shown)
VH: QVQLVESGGGVVQPGRSLRLSCAASGFTFNNYGMHWVRQAPGKGLEWVAVIWYDGSNKFHADSVKGRFTISRDNSKNTLYLQMNSLRAEDTALYYCARVYYYDSGSYLDYWGQGTLVTVSS
VL: DIQMTQSPSSVSASVGDRVTITCRASQGISRWLAWYQQKPGKAPKLLIYAASSLQSGVPSRFSGSGSGTDFTLTISSLQPEDFATYCCQQANNFPWTFGQGTKVEIK
modifications: peptides N-terminally acetylated and C-terminally amidated
B16: CL-510487 (antibody, V domains shown)
VH: QVQLEESGGGVVQPGRSLRLSCTATGFTFSNYGMHWVRQAPGRGLEWVGVIWYDGSNKFYVDSVKGRFTISRDNSKNTLYLQMNSLRAEDTAVYYCARDGGYYGSGSYWWFDSWGQGTLVTVSS
VL: B1 VL with N53S, S56R, S74T, N77S, F87Y, T92N, S93R, W95C, T96S, V103L
modifications: peptides N-terminally acetylated and C-terminally amidated
B17: CL-514716 (antibody, V domains shown)
VH: QIQLVESGGGVVQPGRSLRLSCAASGFTFSTYGMHWVRQAPGKGLEWVAVIWYDGSNKYYADSVQGRFTISRDNSKNTLYLQMNSLRAEDTAIYYCTTVGPIPFDYWGQGTLVTVSS
VL: DIVMTQTPLSSPVILGQPASISCRSSQSLVHSSGNTYLSWLQQRPGQPPRLLIYKTFKRLSGVPDRFSGSGAGTDFTLKISRVEAEDVGVYYCLQSTQFPLTFGGGTKVEIK
modifications: peptides N-terminally acetylated and C-terminally amidated
B18: CL-441816 (antibody, V domains shown)
VH: QEQLVESGGGVVQPGRSLRLSCATSGFTFSTYGLHWVRQSPGKGLEWVTVIWYDGSNKFYADSVKGRFTISRDNSKNTLYLQMNSLRAEDTAVYYCARALYSSRWYGAFDIWGQGTMVTVSS
VL: B6 VL with V32G, Q40L, T54S, Q68K, D94I, S95R
modifications: peptides N-terminally acetylated and C-terminally amidated
B19: CL-513617 (antibody, V domains shown)
VH: QVQLVESGGGVVQPGRSLRLSCAASGFIFSNYGMYWVRQTPDKGLEWVALIWYDGGNKFYSDSVKGRFTVSRDNSKNTLYLQMNSLRDEDTALYYCARAGYFYGSGSSLDKWGQGTLVTVSS
VL: B1 VL with T20S, S31I, N53S, T72S, S74T, N77S, F87Y, T92N, S93R
modifications: peptides N-terminally acetylated and C-terminally amidated
B20: CL-464181 (antibody, V domains shown)
VH: QVQLVESGGGAVQAGTSLRLSCAASGFSFSYNGMHWVRQGPGKGLEWVAIIWYDGGNKFYADSVKGRFTISRDNSKKMLYLQMNRLRAEDTAVYYCARAWNFADNKYSMDVWGQGTTVTVSA
VL: B1 VL with S31C, K45Q, N53S, S74T, N77S, F87Y, T92Y, S93I, E104D
modifications: peptides N-terminally acetylated and C-terminally amidated
B21: CL-444653 (antibody, V domains shown)
VH: QVQLVESGGGVVQPGRSLRLSCTASGFTFSTYGMHWVRQAPGKGLEWVAIIWYDGGNKFYADSVKGRFTISRDNSKDTLYLQMNSLRAEDTAVYYCAKAWYKVDDKYSMDVWGQGTTVTVSS
VL: B1 VL with N53S, S74T, N77G, F87Y, T92I, S93N
modifications: peptides N-terminally acetylated and C-terminally amidated
B22: CL-437092 (antibody, V domains shown)
VH: QVQLVESGGGVVQPGGSLRLSCAASGFTLSSFGIHWVRQAPGKGLEWVALIWHDGSMKYYADSVKGRFTISRDNSKNTVDIQMNSLRVEDTAVYYCARPGIGSPGDHYTMDVWGHGTTVTVSS
VL: not shown
modifications: peptides N-terminally acetylated and C-terminally amidated

Biological target: PfCSP full length (Plasmodium falciparum (isolate NF54), UniProt P19597)
Assay: ELISA AUC

Sequence of PfCSP full length (P19597 20-375): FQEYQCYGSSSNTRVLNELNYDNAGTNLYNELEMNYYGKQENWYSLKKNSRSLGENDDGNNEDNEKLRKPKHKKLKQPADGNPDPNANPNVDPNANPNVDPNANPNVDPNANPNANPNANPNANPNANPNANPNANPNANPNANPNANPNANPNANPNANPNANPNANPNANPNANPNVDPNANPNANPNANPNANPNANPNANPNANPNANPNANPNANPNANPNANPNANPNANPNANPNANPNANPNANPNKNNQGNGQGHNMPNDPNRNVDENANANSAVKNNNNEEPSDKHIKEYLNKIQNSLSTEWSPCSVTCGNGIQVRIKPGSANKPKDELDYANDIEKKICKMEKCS

Binder	binding score
B1	2.34
B2	2.4
B3	2.2
B4	2.59
B5	2.2
B6	2.19
B7	2.3
B8	2.08
B9	1.97
B10	2.39
B11	2.5
B12	2.4
B13	2.54
B14	2.3
B15	2
B16	1.83
B17	1.75
B18	2.4
B19	2.59
B20	2.4
B21	2.3
B22	2.5
